{
  "source": "patent US20260242721A1",
  "about": "“A SYNTHETIC CELLULAR ADVANCED SIGNAL ADAPTER (SCASA) SYSTEM” (Danmarks Tekniske Universitet, priority 2023, published 2026)",
  "key": {"[1]": {"biological_target": "T1, Saccharomyces cerevisiae α-factor pheromone receptor (Ste2) (Saccharomyces cerevisiae) (UniProt D6VTK4)", "T1 sequence": "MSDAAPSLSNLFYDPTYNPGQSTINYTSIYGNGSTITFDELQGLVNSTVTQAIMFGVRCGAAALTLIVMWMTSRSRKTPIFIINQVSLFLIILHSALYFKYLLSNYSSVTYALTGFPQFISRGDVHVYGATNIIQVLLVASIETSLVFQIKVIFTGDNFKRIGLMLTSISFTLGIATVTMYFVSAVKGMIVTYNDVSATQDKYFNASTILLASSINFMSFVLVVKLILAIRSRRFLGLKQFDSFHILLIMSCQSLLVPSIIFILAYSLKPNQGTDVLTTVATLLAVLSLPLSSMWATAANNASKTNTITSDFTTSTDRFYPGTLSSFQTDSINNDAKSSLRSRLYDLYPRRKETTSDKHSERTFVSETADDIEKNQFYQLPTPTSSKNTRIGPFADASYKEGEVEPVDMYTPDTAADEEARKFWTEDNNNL", "assay": "cell-based or functional assay"}, "[2]": {"test_system": "pheromone response pathway (PRP)", "protocol": "To investigate the dose-response features of the selected promoters PMFA2, PFUS1, PAGA2, PFIG.1, PMFA1, PYCL076W, PHPF1, PIME4, PCSS1, PTDH3, PPGK1 and P6XLexOLEU2 upon GPCR stimulation the strains were pre-grown in SC (24 hrs.), whereafter, for each replicate, cells were transferred to 200 μL volumes comprising a 10-fold dilution series of α-factor (0-100 μM) (GenScript) dissolved in SC+1% DMSO, and stimulated for 5 hrs. (30° C., 250 r.p.m.). Flow cytometric measurement was done to quantify yEGFP levels (B525/45-A) and PRP-regulated morphological changes, denoted shmooing (SSC-A) using a NovoCyte Quanteon flow cytometer (Agilent). Data represents means of median fluorescence intensity (mMFI) for three biological replicates and standard deviations hereof. Two-way ANOVA with Tukey's multiple comparisons test was conducted for all conditions."}, "CD19": {"test_system": "CD19", "assay": "Yeast surface display (YSD) of CD19, antibody staining and flow cytometry", "type": "cell-based, Saccharomyces cerevisiae", "conditions": "for fold upregulation of CD19 display relative to unstimulated condition: α-factor 0-100 μM, 20 hrs, promoter driving CD19 in DIX41 background", "protocol": "To investigate the different variants of CD19 modules, yeast cells were grown and, in some cases, stimulated to present CD19 differentially, whereafter they were stained with antibodies and assessed by flow cytometry. Flow cytometric measurement was done using a NovoCyte Quanteon flow cytometer (Agilent) to quantify CD19 by staining with mouse anti-CD19 (FMC63) (Absolute Antibody; Ab00613) and goat anti-mouse-AF647 (polyclonal) (Thermo Fisher; A-21236), detected in R667/30-H, as well as rabbit anti-HA (RM305) (Thermo Fisher; MA5-27915) and goat anti-rabbit-AF488 (polyclonal) (Thermo Fisher; A-11008), detected in B525/45-H (see FIG. 7), and to measure PRP-regulated morphological changes (SSC-H). […] Data represents means of median fluorescence intensity (mMFI) for three biological replicates and standard deviations hereof. Two-way ANOVA with multiple comparisons tests was conducted for all conditions. Histograms are representative replicates. No SSC-normalization was used in the evaluation of the effector module, unlike in Example 1, as it is the absolute response of all effects combined that constitute the total output that CAR T cells interpret and react to.\nFor conventional YSD using strain EBY100 and pCT-plasmid-based expression (Chao et al. 2006, Isolating and engineering human antibodies using yeast surface display. Nature Protocols, 1(2), 755-768), strains were pre-grown in SC −trp, then transferred to 5 mL SC −trp +2% Gal for induction of YSD or +2% Gluc as a negative control (24 hrs., 30° C., 250 r.p.m.). NALM6 was cultured in RPMI 1640 medium (ATCC modification) (Thermo Fisher) with 10% fetal bovine serum and 1% pen-strep (RPMI+10% FBS) at 37° C. with 5% CO2. For the investigation of PGAL1-titratability of DIX41 with pMAD58 and DIX74, strains were pre-grown in SC −ura and SC, respectively, then transferred to SC −ura and SC, respectively, with varying concentrations of galactose (0.0002%-2% Gal), using raffinose as compensating carbon source, and YSD was induced for 24 hrs. (30° C., 250 r.p.m.). Strains were similarly grown in 2% Gluc as negative controls. For the investigation of the strain library with constitutive and dynamically regulated expression of CD19 (Background strain/No YSD, PPGK1-Empty, PMFA2-CD19, PFUS1-CD19, PFIG.1-CD19, PMFA1-CD19, PHPF1-CD19, PTDH3-CD19, PPGK1-CD19) the strains were pre-grown in SC, whereafter, for each replicate, 50.000 cells were transferred to 300 μL volumes comprising a 10-fold dilution series of α-factor (0-100 μM) (GenScript) dissolved in SC+1% DMSO, and stimulated for 20 hrs. (30° C., 250 r.p.m.)."}},
  "data": [
    {"molecule": "α-factor (GenScript) (from UniProt P01149 90-102) (peptide)", "values": [
      {"measurement": "fold change of induction of yEGFP, SSC-normalized, promoter PFIG1, maximum at 100 µM α-factor", "setting": "[1]", "value": 129, "unit": "fold"},
      {"measurement": "fold change of induction of yEGFP, SSC-normalized, promoter PHPF1", "setting": "[1]", "value": 0.62, "unit": "fold"},
      {"measurement": "fold change of yEGFP, unnormalized, promoter PFIG1, 1 µM α-factor", "setting": "[1]", "value": 517, "unit": "fold"},
      {"measurement": "fold change of yEGFP, unnormalized, promoter PFIG1, 100 µM α-factor", "setting": "[1]", "value": 483, "unit": "fold"},
      {"measurement": "fold upregulation of CD19 display, promoter PFIG1, 20 hrs α-factor", "setting": "[1]", "value": 630, "unit": "fold"},
      {"measurement": "fold upregulation of CD19 display, promoter PFUS1, 20 hrs α-factor", "setting": "[1]", "value": 774, "unit": "fold"},
      {"measurement": "fold upregulation of CD19 display, promoter PTDH3", "setting": "[1]", "value": 3.1, "unit": "fold"},
      {"measurement": "general PRP-induced expression boost of yEGFP after 5 hrs of GPCR stimulation", "setting": "[1]", "value": 4.01, "unit": "fold"},
      {"measurement": "maximal fold change of CD19 display, promoters PHPF1, PTDH3 and PPGK1, lower end", "setting": "[1]", "value": "2.9 to 3.8", "unit": "fold"},
      {"measurement": "maximal fold change of CD19 display, promoters PHPF1, PTDH3 and PPGK1, upper end", "setting": "[1]", "value": "2.9 to 3.8", "unit": "fold"}
    ]},
    {"molecule": "α-factor [reference compound]", "values": [
      {"measurement": "α-factor concentration at which shmooing (SSC-A) was most intense", "setting": "[2]; across all strains, 5 hrs", "value": "≥ 0.01", "unit": "µM"},
      {"measurement": "α-factor concentration at which shmooing generally peaked", "setting": "[2]; across all strains, 5 hrs", "value": 1, "unit": "µM"}
    ]},
    {"molecule": "PFUS1: pheromone-responsive Saccharomyces cerevisiae promoter, SEQ ID NO: 8, processing module (yEGFP strain DIX24, CD19 strain DIX45) (nucleic acid, listed as Saccharomyces cerevisiae) DNA: TAATAATCAGAACTCCAACAATAGTCAACAGGGCTATAACCAATCCTATCAAAACGGTAACCAAAATAGTCAAGGTTACAATAATCAACAGTACCAAGGTGGCAACGGTGGTTACCAACAACAACAGGGACAATCTGGTGGTGCTTTTTCCTCATTGGCCTCCATGGCTCAATCTTACTTAGGTGGTGGACAAACTCAATCCAACCAACAGCAATACAATCAACAAGGCCAAAACAACCAGCAGCAATACCAGCAACAAGGCCAAAACTATCAGCATCAACAACAGGGTCAGCAGCAGCAACAAGGCCACTCCAGTTCATTCTCAGCTTTGGCTTCCATGGCAAGTTCCTACCTGGGCAATAACTCCAATTCAAATTCGAGTTATGGGGGCCAGCAACAGGCTAATGAGTATGGTAGACCGCAACAGAATGGTCAACAGCAATCCAATGAGTACGGAAGACCGCAATACGGCGGAAACCAGAACTCCAATGGACAGCACGAATCCTTCAATTTTTCTGGCAACTTTTCTCAACAGAACAATAACGGCAACCAGAACCGCTACTGAACGATGATTCAGTTCGCCTTCTATCCTTTGTTTACGTATTTGTTTATATATATAACTTTATTTTTTTTTATTAATTGGGCTGCAAGACAATTTTGTTGTCAGTGATGCCTCAATCCTTCTTTTGCTTCCATATTTACCATGTGGACCCTTTCAAAACAGAGTTGTATCTCTGCAGGATGCCCTTTTTGACGTATTGAATGGCATAATTGCACTGTCACTTTTCGCGCTGTCTCATTTTGGTGCGATGATGAAACAAACATGAAACGTCTGTAATTTGAAACAAATAACGTAATTCTCGGGATTGGTTTTATTTAAATGACAATGTAAGAGTGGCTTTGTAAGGTATGTGTTGCTCTTAAAATATTTGGATACGACATCCTTTATCTTTTTTCCTTTAAGAGCAGGATATAAGCCATCAAGTTTCTGAAAATCAAA", "values": [
      {"measurement": "maximal absolute yEGFP output relative to orthogonal P6xLexOLEU2 ste12Δ0 strain", "setting": "[2]; PFUS1 STE12+ strain", "value": 4.2, "unit": "fold"},
      {"measurement": "promoter strength relative to P6xLexOLEU2 at maximal induction", "setting": "[2]; SSC-normalized promoter activity", "value": 1.4, "unit": "fold"},
      {"measurement": "CD19 level at unstimulated conditions", "setting": "CD19; no GPCR stimulation", "value": "extremely low levels of CD19 at the limit of detection"},
      {"measurement": "fold upregulation of CD19 display relative to unstimulated condition", "setting": "CD19", "value": "774±165", "unit": "fold"}
    ]},
    {"molecule": "PTDH3: constitutive Saccharomyces cerevisiae promoter, SEQ ID NO: 10, processing module (DIX28, DIX49) (nucleic acid, listed as Saccharomyces cerevisiae) DNA: CTATTTTCGAGGACCTTGTCACCTTGAGCCCAAGAGAGCCAAGATTTAAATTTTCCTATGACTTGATGCAAATTCCCAAAGCTAATAACATGCAAGACACGTACGGTCAAGAAGACATATTTGACCTCTTAACAGGTTCAGACGCGACTGCCTCATCAGTAAGACCCGTTGAAAAGAACTTACCTGAAAAAAACGAATATATACTAGCGTTGAATGTTAGCGTCAACAACAAGAAGTTTAATGACGCGGAGGCCAAGGCAAAAAGATTCCTTGATTACGTAAGGGAGTTAGAATCATTTTGAATAAAAAACACGCTTTTTCAGTTCGAGTTTATCATTATCAATACTGCCATTTCAAAGAATACGTAAATAATTAATAGTAGTGATTTTCCTAACTTTATTTAGTCAAAAAATTAGCCTTTTAATTCTGCTGTAACCCGTACATGCCCAAAATAGGGGGCGGGTTACACAGAATATATAACATCGTAGGTGTCTGGGTGAACAGTTTATTCCTGGCATCCACTAAATATAATGGAGCCCGCTTTTTAAGCTGGCATCCAGAAAAAAAAAGAATCCCAGCACCAAAATATTGTTTTCTTCACCAACCATCAGTTCATAGGTCCATTCTCTTAGCGCAACTACAGAGAACAGGGGCACAAACAGGCAAAAAACGGGCACAACCTCAATGGAGTGATGCAACCTGCCTGGAGTAAATGATGACACAAGGCAATTGACCCACGCATGTATCTATCTCATTTTCTTACACCTTCTATTACCTTCTGCTCTCTCTGATTTGGAAAAAGCTGAAAAAAAAGGTTGAAACCAGTTCCCTGAAATTATTCCCCTACTTGACTAATAAGTATATAAAGACGGTAGGTATTGATTGTAATTCTGTAAATCTATTTCTTAAACTTCTTAAATTCTACTTTTATAGTTAGTCTTTTTTTTAGTTTTAAAACACCAAGAACTTAGTTTCGAATAAACACACATAAACAAACAAA", "values": [
      {"measurement": "fold upregulation of CD19 display relative to unstimulated condition", "setting": "CD19", "value": "3.1±0.3", "unit": "fold"},
      {"measurement": "change of absolute CD19 output on upregulation compared with that of PFUS1", "setting": "CD19; α-factor stimulation", "value": 150.2, "unit": "%"}
    ]}
  ]
}
